Data from doi:10.1101/718155 (2019).

B1: S100B (natural protein)
chain: MSELEKAMVALIDVFHQYSGREGDKHKLKKSELKELINNELSHFLEEIKEQEVVDKVMETLDNDGDGECDFQEFMAFVAMVTTACHEFFEHE

How the values were obtained:
FOR20 = assay: FP; competitive
MK2 = assay: FP; competitive
RSK1-CTKD = assay: FP; competitive
S100B [1] = molecular target: B1; assay: ITC; 298 K
S100B [2] = molecular target: B1; assay: FP; direct
S100A2 [3] = assay: FP; competitive
S100A5 [4] = assay: FP; competitive
S100A1 [5] = assay: FP; competitive
S100P [6] = assay: FP; competitive
S100A4 [7] = assay: FP; competitive
S100A6 [8] = assay: FP; competitive
S100A1 [9] = assay: ITC; 298 K
S100A2 [10] = assay: FP; direct
S100A5 [11] = assay: FP; direct
S100A1 [12] = assay: FP; direct
S100P [13] = assay: FP; direct
S100G = assay: FP; direct
S100A4 [14] = assay: FP; direct
S100A6 [15] = assay: FP; direct
S100A7 = assay: FP; direct
S100A14 = assay: FP; direct
S100A15 = assay: FP; direct
S100A11 [16] = assay: FP; direct
S100A3 [17] = assay: FP; direct
S100B [18] = molecular target: B1; assay: FP; competitive
S100A9 = assay: FP; direct
S100A10 [19] = assay: FP; direct
S100A12 = assay: FP; direct
S100A13 = assay: FP; direct
S100Z = assay: FP; direct
S100A8 [20] = assay: FP; direct
S100A1 [21] = assay: ITC; 310 K
S100A3 [22] = assay: FP; competitive
S100A6 [23] = assay: ITC; 310 K
S100B [24] = molecular target: B1; assay: ITC; 310 K; second site
S100B [25] = molecular target: B1; assay: ITC; 310 K
S100A5 [26] = assay: ITC; 310 K
S100A10 [27] = assay: FP; competitive
S100A8 [28] = assay: FP; competitive
S100A11 [29] = assay: FP; competitive

Kd (S100B [2]) [µM] | Kd (S100A2 [3]) [µM] | Kd (S100A5 [4]) [µM] | Kd (S100A1 [5]) [µM] | Kd (S100P [6]) [µM] | Kd (S100A4 [7]) [µM] | Kd (S100A6 [8]) [µM] | Kd (S100A2 [10]) [µM] | Kd (S100A5 [11]) [µM] | Kd (S100A1 [12]) [µM] | Kd (S100P [13]) [µM] | Kd (S100A4 [14]) [µM] | Kd (S100A6 [15]) [µM] | Kd (S100A14) [µM] | Kd (S100A11 [16]) [µM] | Kd (S100A3 [17]) [µM] | Kd (S100B [18]) [µM] | Binder | also measured
 |  |  |  |  |  |  |  |  |  |  |  |  |  |  |  |  | B1 | Kd (FOR20): 0.25 µM; Kd (MK2): 3.2 µM; Kd (RSK1-CTKD): 1.2 µM
 |  |  |  |  |  |  |  |  |  |  |  |  |  |  |  |  | GAMAATYSALNSSKPTPQLKPIESSILAQRRVRKLPSTTL [RSK1 (696-735) peptide] | Kd (S100B [1]): 12 µM
4.7 | 0.013 | 2.9 | 0.004 | 0.14 | 0.0088 | 0.21 | 0.057 | 5.8 | 0.033 | 0.99 | 0.026 | 0.58 | 98 | 49 | 5.5 | 2.9 | RKLQRELEDATETADAMNREVSSLKNKLRRGDLPFVVPRRMARK [NMIIA (1894-1937) peptide] | Kd (S100A1 [9]): 0.009 µM; Kd (S100G): 21 µM; Kd (S100A7): 13.1 µM; Kd (S100A15): 17 µM
7.7 |  | 5.2 | 2.6 |  |  |  | 5.5 | 4.6 | 2.6 | 4 | 15 | 27 | 71 | 52 | 25 | > 200 | RRLLFYKYVYKR [NCX1 (254-265) peptide] | Kd (S100A9): 20 µM; Kd (S100G): 24 µM; Kd (S100A10 [19]): 53 µM; Kd (S100A12): 170 µM; Kd (S100A13): 87 µM; Kd (S100Z): 11 µM; Kd (S100A8 [20]): 56 µM; Kd (S100A7): 30 µM; Kd (S100A15): 28 µM; Kd (S100A1 [21]): 6.4 µM
 | 0.081 | 0.56 | 0.35 | 0.066 | 0.048 | 0.0056 |  |  |  |  |  |  |  |  |  | 1.2 | MAATAAAVVAEEDTELRDLLVQTLENSGVLNRIKAELRAAVFLALEEQ [FOP (1-48) peptide] | Kd (S100A3 [22]): 0.27 µM; Kd (S100A6 [23]): 0.088 µM
0.2 | 53 | 65 | 35 |  |  |  | 49 | 61 | 91 |  |  |  |  |  |  | 0.15 | NQVRPKLPLLKILHAAGAQ [MDM4 (25-43) peptide] | Kd (S100B [24]): 0.63 µM; Kd (S100B [25]): 0.71 µM
2.3 |  | 5.4 | 5.2 | 4.1 |  |  |  | 4.7 | 8.9 | 11 |  |  |  |  |  | 1.8 | TRTKIDWNKILS [CapZ (265-276) peptide] | Kd (S100B [24]): 0.94 µM; Kd (S100B [25]): 3.9 µM
> 200 |  | 40 |  |  | 11 | 20 | 102 | 42 |  | 38 | 42 | 8.7 |  |  |  |  | SEGLMNVLKKIYEDG [SIP (188-202) peptide] | Kd (S100A5 [26]): 21 µM
16 | 1.1 | 2.3 |  |  | 35 | 8.4 | 1 | 0.6 | 0.38 | 0.93 | 5.9 | 1.4 | 12 | 2.4 | 0.91 | > 200 | VLQTWLQDLLRRGLVRAAQ [TRPM4 (129-147) peptide] | Kd (S100A10 [27]): 125 µM; Kd (S100A8 [28]): 13 µM; Kd (S100A11 [29]): 106 µM; Kd (S100A3 [22]): 3.4 µM; Kd (S100A9): 21 µM; Kd (S100A10 [19]): 17 µM; Kd (S100A8 [20]): 3.8 µM; Kd (S100A5 [26]): 1.4 µM
